Data published in patent publication US20230250134A1 (University of Washington, published 2023).
Where two headings read alike, the source gives them in different places.

Experiments:
[1] = target: SARS-COV-2 spike protein on authentic virus, strain 2019 n-COV/USA_WA1/2020 (SARS-CoV-2, UniProt P0DTC2 14-1273); test: cell-based or functional assay
[2] = target: SARS-COV-2 Spike glycoprotein (SARS-CoV-2, UniProt P0DTC2 14-1208); test: estimated Kd for Spike (avidity), Table 10
[3] = target: T1, SARS-COV-2 Spike glycoprotein receptor binding domain (RBD) (SARS-CoV-2, UniProt P0DTC2 319-541); test: estimated Kd for RBD, Table 10
[4] = target: T1, SARS-COV-2 Spike glycoprotein receptor …

Row | Binder | SARS-CoV-2 Neutralization IC50 [1] [nM] | Kd [2] [nM] | Kd [3] [nM] | Kd [4] [nM]
1 | LCB6-1 (designed binder) DREQRLVRFLVRLASKFNLSPEQILQLFEVLEELLERGVSEEEIRKQLEEVAKELG | 0.01 | 0.1 | 0.2 | –
2 | LCB1_v1.1-PRO-LCB3_v1.2 (1PRO3) (designed binder) DKENILQKIYEIMKTLDQLGHAEASMQVSDLIYEFMKQGDERLLEEAERLLEEVERAGSGGSGGSGGSPVPSTPPTPSPSTPPTPSPSPVPSTPPTPSPSTPPTPSPSPVPSTPPTPSPSTPPTPSPSASGNDDELHMQMTDLVYEALHFAKDEEIQKHVFQLFEKATKAYKNKDRQKLEKVVEELKELLERLLS | – | 0.1 | – | 0.2
3 | LCB1-6GS-LCB1 (designed binder) DKEWILQKIYEIMRLLDELGHAEASMRVSDLIYEFMKKGDERLLEEAERLLEEVERGGSGGSDKEWILQKIYEIMRLLDELGHAEASMRVSDLIYEFMKKGDERLLEEAERLLEEVER | 0.01 | – | 0.2 | –
4 | LCB1-3 (designed binder) DKEWILQKIYEIMRLLDELGHAEASMRVSDLIYEFMKQGDERLLEEAERLLEEVER | 0.01 | 0.1 | 0.2 | –
5 | LCB6-2 (designed binder) DREQRLVRFLVRLASKFNLSMEQILILFDVLEELLERGVSEEEIRKILEEVAKEL | 0.01 | 0.1 | 0.2 | –
6 | LCB3_v1.2-PRO-LCB1_v1.1 (3PRO1) (designed binder) NDDELHMQMTDLVYEALHFAKDEEIQKHVFQLFEKATKAYKNKDRQKLEKVVEELKELLERLLSAGSGGSGGSGGSPVPSTPPTPSPSTPPTPSPSPVPSTPPTPSPSTPPTPSPSPVPSTPPTPSPSTPPTPSPSASGDKENILQKIYEIMKTLDQLGHAEASMQVSDLIYEFMKQGDERLLEEAERLLEEVER | – | 0.1 | – | 0.2
7 | LCB1-12GS-LCB1 (designed binder) DKEWILQKIYEIMRLLDELGHAEASMRVSDLIYEFMKKGDERLLEEAERLLEEVERGGSGGSGSGGSGDKEWILQKIYEIMRLLDELGHAEASMRVSDLIYEFMKKGDERLLEEAERLLEEVER | 0.01 | – | 0.2 | –
8 | LCB3_v1.2-10GS-LCB1_v1.1 (LCB3-GS10-LCB1) (designed binder) NDDELHMQMTDLVYEALHFAKDEEIQKHVFQLFEKATKAYKNKDRQKLEKVVEELKELLERLLSGGSGGSGGSGDKENILQKIYEIMKTLDQLGHAEASMQVSDLIYEFMKQGDERLLEEAERLLEEVER | – | 0.1 | – | 0.2
